Experimental findings from patent US12319739 (F STAR DELTA, dated 2025) are described below.

The target in test [1] is T1, mouse CD137 ligand on DO11.10 cells (mouse, UniProt P41274 1-309).
T1 construct: whole, on cells
T1 sequence (looked up): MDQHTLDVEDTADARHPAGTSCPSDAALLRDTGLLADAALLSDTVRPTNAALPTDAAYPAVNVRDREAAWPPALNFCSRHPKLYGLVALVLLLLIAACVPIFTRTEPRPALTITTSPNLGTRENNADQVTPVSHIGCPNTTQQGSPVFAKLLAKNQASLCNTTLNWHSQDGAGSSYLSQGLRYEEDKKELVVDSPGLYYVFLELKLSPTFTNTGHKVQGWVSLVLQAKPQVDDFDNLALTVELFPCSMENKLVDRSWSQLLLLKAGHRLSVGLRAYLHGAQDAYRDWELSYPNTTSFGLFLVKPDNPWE
As to the kind of experiment: flow cytometry, detected with anti mouse Fc antibody.
Experimental: Cells were incubated with the CD137 antigens for 1 hour, and then a fluorescently labelled anti mouse Fc fragment antibody was used to detect cell binding.

In test [2] the target is T2, cMSLN-His-Avi (cynomolgus, single biotin on the Avi tag in the biotinylated form).
T2 construct: Monomeric; also called cyno MSLN-His-Avi; cMSLN-Avi-His
T2 chain: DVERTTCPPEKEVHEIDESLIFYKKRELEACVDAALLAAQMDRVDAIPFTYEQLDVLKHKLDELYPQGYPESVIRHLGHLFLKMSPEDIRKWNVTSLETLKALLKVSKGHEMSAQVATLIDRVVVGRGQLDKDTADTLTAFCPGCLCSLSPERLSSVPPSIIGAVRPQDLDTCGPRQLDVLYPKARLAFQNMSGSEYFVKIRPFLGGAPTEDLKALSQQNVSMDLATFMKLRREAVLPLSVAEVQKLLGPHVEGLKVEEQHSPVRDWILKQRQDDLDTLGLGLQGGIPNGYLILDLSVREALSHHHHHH
As to the kind of experiment: SPR. The procedure:
The association time was 5 min and the dissociation time was 5 min. Running buffer was HBS-EP (GE Healthcare BR100188). Flow cells were regenerated by injecting Glycine-HCl pH2.1 at a flow rate of 30 μl/min for 15 seconds. The data was analysed as described in Example 7.1.
Background: SPR reads the build-up and loss of mass on a sensor chip optically.

The target of test [3] is T3, human CEACAM-5-His-Fc (human, UniProt P06731 35-685).
T3 sequence (looked up): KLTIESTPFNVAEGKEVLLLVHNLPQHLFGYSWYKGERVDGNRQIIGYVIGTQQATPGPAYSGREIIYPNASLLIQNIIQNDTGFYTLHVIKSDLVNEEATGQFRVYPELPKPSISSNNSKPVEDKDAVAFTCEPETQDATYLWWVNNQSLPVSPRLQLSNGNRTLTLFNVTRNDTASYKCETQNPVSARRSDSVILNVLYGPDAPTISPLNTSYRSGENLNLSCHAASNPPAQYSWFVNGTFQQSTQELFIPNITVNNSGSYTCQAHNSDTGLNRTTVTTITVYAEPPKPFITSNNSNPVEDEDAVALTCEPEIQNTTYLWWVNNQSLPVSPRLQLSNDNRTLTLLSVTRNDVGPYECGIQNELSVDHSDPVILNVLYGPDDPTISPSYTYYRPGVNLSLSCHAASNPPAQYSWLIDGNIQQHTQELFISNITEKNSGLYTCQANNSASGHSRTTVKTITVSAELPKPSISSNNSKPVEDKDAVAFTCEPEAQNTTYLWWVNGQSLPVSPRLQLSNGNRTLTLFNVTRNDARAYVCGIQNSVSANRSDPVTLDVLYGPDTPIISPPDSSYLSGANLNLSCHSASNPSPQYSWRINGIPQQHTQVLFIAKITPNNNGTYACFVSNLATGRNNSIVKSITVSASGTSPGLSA
Kind of test: ELISA, antigen coated 1 µg/ml. The procedure: (§1) Binding of the anti-MSLN mAbs, tested at a concentration range of 0.02 to 1000 nM (3-fold dilutions) was detected using anti-human Fab-HRP (Sigma, A0293).

Test [4] deals with T4, human E-Cadherin (human, UniProt P12830 155-707).
T4 sequence (looked up): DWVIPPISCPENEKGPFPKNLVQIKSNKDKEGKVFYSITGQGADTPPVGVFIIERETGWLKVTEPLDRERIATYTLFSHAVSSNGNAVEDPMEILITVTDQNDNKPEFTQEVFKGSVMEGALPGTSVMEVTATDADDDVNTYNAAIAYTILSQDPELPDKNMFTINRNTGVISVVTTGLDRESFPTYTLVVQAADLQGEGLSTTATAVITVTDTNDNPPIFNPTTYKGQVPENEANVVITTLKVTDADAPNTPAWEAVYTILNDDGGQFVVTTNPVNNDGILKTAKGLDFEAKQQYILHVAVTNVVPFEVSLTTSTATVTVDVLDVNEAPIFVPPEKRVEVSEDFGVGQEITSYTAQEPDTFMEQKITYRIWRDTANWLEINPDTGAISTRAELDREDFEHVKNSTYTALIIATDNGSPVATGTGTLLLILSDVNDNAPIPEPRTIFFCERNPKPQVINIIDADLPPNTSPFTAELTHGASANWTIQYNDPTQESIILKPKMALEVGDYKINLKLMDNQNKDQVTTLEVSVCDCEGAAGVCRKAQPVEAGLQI
Kind of test: ELISA, antigen coated 1 µg/ml. The procedure:
as §1
A general note: In an ELISA, binding on a coated surface is turned into a signal by an enzyme label.

Test [5] deals with human Thrombomodulin (human, UniProt P07204 19-515, limits assumed). Kind of test: ELISA, antigen coated 1 µg/ml. The procedure:
as §1

In test [6] the target is T5, human EpCAM-hFc (human, UniProt P16422 24-265, limits assumed).
T5 sequence (looked up): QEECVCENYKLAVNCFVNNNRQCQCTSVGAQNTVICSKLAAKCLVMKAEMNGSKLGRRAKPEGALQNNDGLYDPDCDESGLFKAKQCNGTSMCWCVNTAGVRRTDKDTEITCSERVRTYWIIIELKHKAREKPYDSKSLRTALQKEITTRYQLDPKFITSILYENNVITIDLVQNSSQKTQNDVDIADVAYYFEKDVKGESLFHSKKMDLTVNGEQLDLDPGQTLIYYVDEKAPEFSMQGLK
As to the kind of experiment: ELISA, antigen coated 1 µg/ml. The procedure:
as §1

For test [7], the target named is T6, hMSLN-His-Avi (human, UniProt Q13421 296-598, single biotin on the Avi tag in the biotinylated form).
T6 construct: Monomeric; also called human MSLN-His-Avi; hMSLN-Avi-His
T6 sequence (Q13421 other isoform, or with tags, fused parts or gaps): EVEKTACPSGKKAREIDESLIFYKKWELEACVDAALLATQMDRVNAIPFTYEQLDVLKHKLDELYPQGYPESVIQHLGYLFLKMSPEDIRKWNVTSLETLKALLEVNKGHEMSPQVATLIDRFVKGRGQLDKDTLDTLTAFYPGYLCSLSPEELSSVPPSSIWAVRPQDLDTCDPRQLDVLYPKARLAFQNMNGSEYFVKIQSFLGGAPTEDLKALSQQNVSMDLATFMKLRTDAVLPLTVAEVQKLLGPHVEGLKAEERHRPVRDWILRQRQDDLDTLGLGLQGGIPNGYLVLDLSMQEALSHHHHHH
Kind of test: ELISA, hMSLN-His-Avi coated 1 µg/ml.

Test [8] concerns the target T6, hMSLN-His-Avi. Kind of test: SPR, hMSLN-His-Avi immobilised at 50 RU.
The target in test [9] is T6, hMSLN-His-Avi. As to the kind of experiment: SPR, hMSLN-His-Avi immobilised at 100 RU.
For test [10], the target named is mouse CD137 expressed on cells (mouse, UniProt P20334 24-256). Kind of test: cell-based or functional assay.
Test [11] concerns the target mouse CD40 (mouse, UniProt P27512 24-193, limits assumed, chemically biotinylated (EZ-Link Sulfo-NHS-SS-Biotin)). As to the kind of experiment: BLI (Octet), biotinylated receptor on streptavidin sensors. The method, then:
(§2) The specificity of the anti-mouse CD137 Fcabs for mouse CD137 were tested in HeID1.3 "mock" mAb² format and measured by BLI in an Octet QKe system by testing for binding of the Fcabs to other mouse TNFRSF receptors (CD40, OX40, GITR). Streptavidin biosensors (PALL ForteBio 18-5021) to coat 10 ng/μl mouse CD40, GITR, OX40 receptors (all obtained from R&D Systems and biotinylated using an EZ-Link Sulfo-NHS-SS-Biotin kit from Thermoscientific #21328). Anti-mouse CD137 Fcabs in mock mAb² format were diluted 1:1 in kinetic buffer (PALL 18-1092) to a final concentration of at least 1 μM. Antigen-coated sensors were dipped into the mAb² solutions for 180 seconds followed by 180 seconds in 1× kinetic buffer. Antibodies for each of the TNFRSF receptors were used as positive controls.
Background: In BLI a coated tip is dipped into the sample, and binding shifts an interference pattern.

The target in test [12] is T7, mouse GITR (mouse, UniProt O35714 20-153, limits assumed, chemically biotinylated (EZ-Link Sulfo-NHS-SS-Biotin)).
T7 sequence (looked up): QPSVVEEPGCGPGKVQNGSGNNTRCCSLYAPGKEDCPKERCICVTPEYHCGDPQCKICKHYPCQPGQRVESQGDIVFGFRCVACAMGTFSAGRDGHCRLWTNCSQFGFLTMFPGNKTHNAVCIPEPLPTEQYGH
The description is as above. The procedure: as §2

The term EC50 denotes the concentration at which the effect is half-maximal. A high value points to a need for much substance. The term Kd denotes the free concentration of one partner at which half of the binding sites on the other are occupied at equilibrium, for simple one-to-one binding.

human Thrombomodulin, sequence (P07204 19-515 limits assumed): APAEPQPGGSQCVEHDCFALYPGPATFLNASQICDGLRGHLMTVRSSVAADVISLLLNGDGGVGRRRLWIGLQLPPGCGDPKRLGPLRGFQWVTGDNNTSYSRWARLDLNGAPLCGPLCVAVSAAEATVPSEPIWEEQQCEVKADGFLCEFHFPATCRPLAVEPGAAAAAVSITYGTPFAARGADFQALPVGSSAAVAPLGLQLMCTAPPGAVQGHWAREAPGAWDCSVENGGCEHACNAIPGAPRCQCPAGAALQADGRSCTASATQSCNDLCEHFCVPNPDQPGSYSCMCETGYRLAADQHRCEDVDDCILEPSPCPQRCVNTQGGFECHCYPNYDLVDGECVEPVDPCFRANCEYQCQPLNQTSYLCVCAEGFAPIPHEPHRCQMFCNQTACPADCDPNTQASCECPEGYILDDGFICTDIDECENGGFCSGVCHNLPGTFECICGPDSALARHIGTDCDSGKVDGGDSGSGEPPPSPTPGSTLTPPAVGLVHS
mouse CD40, sequence (P27512 24-193 limits assumed): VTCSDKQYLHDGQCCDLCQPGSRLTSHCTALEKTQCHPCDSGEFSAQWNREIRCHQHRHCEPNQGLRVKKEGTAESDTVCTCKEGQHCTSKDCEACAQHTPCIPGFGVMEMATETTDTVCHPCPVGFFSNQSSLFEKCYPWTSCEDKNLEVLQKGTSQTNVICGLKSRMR

B1: mCD137-mFc-Avi (Fc fusion, not shown: a dimerising Fc or GST; small tags and cut ends)
chain: VQNSCDNCQPGTFCRKYNPVCKSCPPSTFSSIGGQPNCNICRVCAGYFRFKKFCSSTHNAECECIEGFHCLGPQCTRCEKDCRPGQELTKQGCKTCSLGTFNDQNGTGVCRPWTNCSLDGRSVLKTGTTEKDVVCGPPVVSFSPSTTISVTPEGGPGGHSLQVL
modifications: one biotin on each Avi tag in the biotinylated form
notes: also called mouse dimeric CD137; mouse CD137-mFc-Avi
On to B1, for which the binding result in [1] was “binds”.

B2: FS28-024 (mAb in G1-AA format) (antibody, human IgG1, V domains shown)
VH: EVQLLESGGGLVQPGGSLRLSCAASGFTLSYSSMSWVRQAPGKGLEWVSFITPSTGYTHYADSVKGRFTISRDNSKNTLYLQMNSLRAEDTAVYYCARRALTFDYWGQGTLVTVSS
VL: EIVLTQSPGTLSLSPGERATLSCRASQSVSSSYLAWYQQKPGQAPRLLIYGASSRATGIPDRFSGSGSGTDFTLTISRLEPEDFAVYYCQQASSYPLTFGQGTKVEIK
As for B2, the “fold lower affinity for cyno MSLN than for human MSLN” value in test [2] is approximately 5 fold. Besides, the binding result in test [3], in [4], in [5] and in test [6] was “no binding (tested: 1000 nM)” in each case. In test [7], the EC50 is approximately 500 pM. This molecule also displayed a maximum binding signal in test [7] of 3. Besides, the values for the Kd in [8] and in test [9] were 770 pM and 230 pM, respectively.

B3: FS22m-063 in mock mAb^2 (HelD1.3) format (bispecific antibody, human IgG1, kappa, L234A L235A)
heavy: QVQLQESGPGLVRPSQTLSLTCTVSGSTFSGYGVNWVRQPPGRGLEWIGMIWGDGNTDYNSALKSRVTMLVDTSKNQFSLRLSSVTAADTAVYYCARERDYRLDYWGQGSLVTVSSASTKGPSVFPLAPSSKSTSGGTAALGCLVKDYFPEPVTVSWNSGALTSGVHTFPAVLQSSGLYSLSSVVTVPSSSLGTQTYICNVNHKPSNTKVDKKVEPKSCDKTHTCPPCPAPEAAGGPSVFLFPPKPKDTLMISRTPEVTCVVVDVSHEDPEVKFNWYVDGVEVHNAKTKPREEQYNSTYRVVSVLTVLHQDWLNGKEYKCKVSNKALPAPIEKTISKAKGQPREPQVYTLPPSRDEPYWSYVSLTCLVKGFYPSDIAVEWESNGQPENNYKTTPPVLDSDGSFFLYSKLTVMNYRWELGNVFSCSVMHEALHNHYTQKSLSLSPG
light: DIQMTQSPASLSASVGETVTITCRASGNIHNYLAWYQQKQGKSPQLLVYNAKTLADGVPSRFSGSGSGTQYSLKINSLQPEDFGSYYCQHFWSTPRTFGGGTKLEIKRTVAAPSVFIFPPSDEQLKSGTASVVCLLNNFYPREAKVQWKVDNALQSGNSQESVTEQDSKDSTYSLSSTLTLSKADYEKHKVYACEVTHQGLSSPVTKSFNRGEC
notes: The entries are those of FS22m-063-AA/HelD1.3 (with LALA); also called FS22m-063-AA/HelD1.3; FS22m-063/HeID1.3
As to B3, in test [10], the “NF-κB luciferase reporter EC50, HEK.FRT.luc.mCD137 cells, crosslinked with Protein L” value was 1440 pM. The “NF-κB luciferase reporter, fold-change in activity upon Protein L crosslinking” value in test [10] stood at 27 fold. The binding result in test [11] and in [12] was “no binding (tested: at least 1 µM)” each time.
